Laboratory results published in patent US6933284 (University of California, dated 2005).

How the values were obtained:
[1] = molecular target: T1, recombinant control LDL without the 'Leu-Leu' mutation (LDL generated by the unmodified apo-B100 P1 … (human, UniProt P04114 28-4563)); experiment: gel-mobility shift, data not shown
T1 construct: mature; Tested as an LDL particle
Method: (§1) Before the assay, the (^35S)biglycan and (^35S)versican preparations were dialyzed extensively at 4° C. against 10 mM HEPES, 150 mM NaCl, 5 mM CaCl_2, and 2 mM MgCl_2 (pH 7.4, Buffer A), and the protein concentrations were determined (BioRad Laboratories) with bovine gamma globulin as the standard. Increasing concentrations of LDL were incubated with approximately 2000 dpm of (^35S)biglycan or (^35S)versican for 1 h at 37° C. in a total volume of 20 μl of Buffer A. Three microliters of bromophenol blue:glycerol (1:1, v/v) was added to the samples, and 20 μl was loaded into wells of 0.7% NuSieve (FMC BioProducts) agarose gels prepared on Gel-Bond film (FMC BioProducts). Electrophoresis was run for 3 h at 60V with recirculating buffer (10 mM HEPES, 2 mM CaCl_2, 4 mM MgCl_2 pH 7.2) in a cold room. Gels were fixed with 0.1% cetyl pyridium chloride in 70% ethanol for 90 min, air-dried, and exposed to Hyper Film-MP (Amersham Life Sciences) at ^-70° C. The (^35S)biglycan or (^35S)versican complexed to LDL appears as a band at the […] with a Hewlett Packard Scan Jet II cx and ImageQuant software (Molecular Dynamics).
This procedure has the advantages that only microgram quantities of lipoproteins are required and the relative affinity of LDL binding to the proteoglycans can be determined at physiological ionic and pH conditions. […]

[2] = molecular target: T2, RK3359-3369SA LDL (recombinant LDL, human apo-B100 with the arginines of Site B changed to serines and the … (human, UniProt P04114 28-4563)); experiment: gel-mobility shift, three independent experiments
T2 construct: mature; Tested as a purified LDL particle from transgenic mouse plasma; Q2153L follows from the statement that R3500Q is the only LDL without the 'Leu-Leu' mutation; also called recombinant LDL with the uncharged Site B
Method: as §1, with “The interaction between LDL and biglycan or versican was investigated by a gel-mobility shift assay (Camejo, G. et al. 1993. *J. Biol Chem.* 268:14131–14137). Before” for “Before”
(§2) This procedure has the advantages that only microgram quantities of lipoproteins are required and the relative affinity of LDL binding to the proteoglycans can be determined at physiological ionic and pH conditions. […] Of particular interest was that recombinant K3363E LDL interacted defectively with both versican and biglycan but had normal receptor binding.

[3] = molecular target: T3, K3363E LDL (recombinant LDL, human apo-B100 with glutamic acid for lysine at residue 3363) (human, UniProt P04114 28-4563); experiment: gel-mobility shift, three independent experiments
T3 construct: mature; Tested as a purified LDL particle from transgenic mouse plasma
Method: as §1, with “The interaction between LDL and biglycan or versican was investigated by a gel-mobility shift assay (Camejo, G. et al. 1993. *J. Biol Chem.* 268:14131–14137). Before” for “Before”
as §2

human plasma LDL = molecular target: T4, human plasma LDL (human, UniProt P04114 28-4563, 125I-labeled where used as tracer in the receptor assay); experiment: gel-mobility shift, three independent experiments
T4 construct: mature; Native LDL particle; also called normal human plasma LDL
Method: as §1, with “The interaction between LDL and biglycan or versican was investigated by a gel-mobility shift assay (Camejo, G. et al. 1993. *J. Biol Chem.* 268:14131–14137). Before” for “Before”
as §2

[4] = molecular target: T5, recombinant control LDL (human apo-B100 with leucine in place of glutamine at position 2153) (human, UniProt P04114 28-4563); experiment: summary table, proteoglycan binding (biglycan and versican were the proteoglycans tested)
T5 construct: mature; one apo-B100 per particle, with lipid; also called wild-type recombinant LDL; 'Leu-Leu' apo-B100 LDL

[5] = molecular target: T3, K3363E LDL (recombinant LDL, human …); experiment: summary table, LDL receptor binding
[6] = molecular target: T5, recombinant control LDL (human apo-B100 …); experiment: summary table, LDL receptor binding
[7] = molecular target: T1, recombinant control LDL without the …; experiment: receptor-binding activity, details not given

Measured: binding result

B1: (35S)biglycan from cultured human arterial smooth muscle cells (other, UniProt P21810 38-368, looked up)
chain: DEEASGADTSGVLDPDSVTPTYSAMCPFGCHCHLRVVQCSDLGLKSVPKEISPDTTLLDLQNNDISELRKDDFKGLQHLYALVLVNNKISKIHEKAFSPLRKLQKLYISKNHLVEIPPNLPSSLVELRIHDNRIRKVPKGVFSGLRNMNCIEMGGNPLENSGFEPGAFDGLKLNYLRISEAKLTGIPKDLPETLNELHLDHNKIQAIELEDLLRYSKLYRLGLGHNQIRMIENGSLSFLPTLRELHLDNNKLARVPSGLPDLKLLQVVYLHSNNITKVGVNDFCPMGFGVKRAYYNGISLFNNPVPYWEVQPATFRCVTDRLAIQFGNYKK
modifications: glycosaminoglycan chains metabolically labeled with (35S)SO4
notes: Proteoglycan: core protein with glycosaminoglycan chains; also called pool 3
binds: [1] | [2] | [3] | human plasma LDL | [4]

B2: LDL receptor on normal human fibroblasts (receptor)
chain: not shown
notes: whole, on cells; also called LDL receptors
binds: [5] | [6] | [7]
